Laboratory results as given in patent US20200317768A1 (published 2020).

Columns and labels:
Human latent myostatin = target: T1, Human latent myostatin (human, UniProt O14793 25-266; O14793 267-375); assay: SPR (BIACORE), additional dissociation phase at pH5.8 after dissociation at pH7.4, Scrubber 2.0 fit
T1 construct: Biotinylated in the ELISAs; also called human myostatin latent form
T1 sequence 1: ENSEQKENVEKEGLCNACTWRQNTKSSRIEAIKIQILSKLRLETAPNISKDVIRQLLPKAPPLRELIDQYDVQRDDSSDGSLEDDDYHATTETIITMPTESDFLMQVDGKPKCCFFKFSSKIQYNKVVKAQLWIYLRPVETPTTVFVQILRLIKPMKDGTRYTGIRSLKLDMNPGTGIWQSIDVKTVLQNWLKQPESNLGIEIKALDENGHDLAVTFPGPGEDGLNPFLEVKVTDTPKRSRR
T1 sequence 2: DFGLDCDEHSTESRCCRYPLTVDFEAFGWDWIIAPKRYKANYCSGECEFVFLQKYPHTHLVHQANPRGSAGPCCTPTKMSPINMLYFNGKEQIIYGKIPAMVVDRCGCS
Procedure: Each amino acid in the CDRs was individually mutated to histidine using In-Fusion HD Cloning Kit (Clontech Inc, or Takara Bio company) according to the manufacturer's instructions. […] All histidine-substituted variants were evaluated by a modified BIACORE® assay as compared to that described above. Briefly, an additional dissociation phase at pH5.8 was integrated into the BIACORE® assay immediately after the dissociation phase at pH7.4. This is to assess the pH-dependent dissociation between antibody (Ab) and antigen (Ag) from the complexes formed at pH7.4 as opposed to the corresponding dissociation at pH5.8. The dissociation rate at pH5.8 buffer was determined by processing and fitting data using the Scrubber 2.0 (BioLogic Software) curve fitting software.
Antibodies with a combination of these mutations in the CDRs were then generated.

[1] = target: T2, human FcγRIIaH extracellular domain, His-tagged (human, UniProt P12318 34-217); assay: SPR (BIACORE), antibody captured on chip, FcγR as analyte, 25 °C; KD of SG1 divided by KD of the variant
T2 construct: also called human FcγRIIa (type H); FcgRIIaH; not shown: C-terminal His-tag
T2 sequence: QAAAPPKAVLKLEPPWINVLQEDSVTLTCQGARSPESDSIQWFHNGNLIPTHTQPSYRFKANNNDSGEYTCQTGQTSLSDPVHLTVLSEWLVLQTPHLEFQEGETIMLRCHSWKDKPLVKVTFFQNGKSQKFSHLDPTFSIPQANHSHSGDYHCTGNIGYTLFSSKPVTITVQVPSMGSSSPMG
Procedure: (§1) After the measurement, the antibody captured on the chip was washed off by allowing reaction with 10 mM glycine-HCl, pH1.5 and 25 mM NaOH so that the chip was regenerated and used repeatedly. The sensorgrams obtained as measurement results were analyzed by the 1:1 Langmuir binding model using the BIACORE® Evaluation Software to calculate the binding rate constant ka (L/mol/s) and dissociation rate constant kd (l/s), and the dissociation constant KD (mol/L) was calculated from these values. […] Regarding such interactions, KD values were calculated using the following 1:1 binding model described in BIACORE® T100 Software Handbook BR1006-48 Edition AE.
(§2) The behavior of interacting molecules according to the 1:1 binding model on BIACORE® can be described by Equation 1: Req=C·R max/(KD+C)+RI, wherein, Req is a plot of steady-state binding levels to analyte concentration. C is concentration, RI is bulk refractive index contribution in the sample, and Rmax is analyte binding capacity of the surface. When this equation is rearranged, KD can be expressed as Equation 2: KD=C·Rmax/(Req−RI)−C. KD can be calculated by substituting the values of Rmax, RI, and C into Equation 1 or Equation 2. From the current measurement conditions, RI=0, C=2 μmol/L can be used.

[2] = target: T3, cynomolgus monkey FcγRIIa1 extracellular domain, His-tagged (cynomolgus monkey); assay: as above
T3 construct: also called cyno FcγRIIa1; cynoFcgRIIa1; not shown: C-terminal His-tag
T3 chain: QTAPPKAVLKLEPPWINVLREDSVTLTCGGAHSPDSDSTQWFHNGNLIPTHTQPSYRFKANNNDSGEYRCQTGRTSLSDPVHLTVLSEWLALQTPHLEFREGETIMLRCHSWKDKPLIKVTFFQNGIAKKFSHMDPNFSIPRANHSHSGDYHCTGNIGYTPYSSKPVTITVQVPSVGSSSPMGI
Procedure: as §1, §2

[3] = target: T4, human FcγRIIaR extracellular domain, His-tagged (human, UniProt P12318 34-217); assay: as above
T4 construct: also called human FcγRIIa (type R); FcgRIIaR; not shown: C-terminal His-tag
T4 chain: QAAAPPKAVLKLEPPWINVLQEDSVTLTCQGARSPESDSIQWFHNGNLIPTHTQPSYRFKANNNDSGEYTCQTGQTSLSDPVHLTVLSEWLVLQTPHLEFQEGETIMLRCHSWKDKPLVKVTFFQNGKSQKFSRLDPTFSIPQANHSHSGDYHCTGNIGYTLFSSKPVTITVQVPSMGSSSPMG
Procedure: as §1, §2

[4] = target: T5, cynomolgus monkey FcγRIIa2 extracellular domain, His-tagged (cynomolgus monkey); assay: as above
T5 construct: also called cyno FcγRIIa2; cynoFcgRIIa2; not shown: C-terminal His-tag
T5 chain: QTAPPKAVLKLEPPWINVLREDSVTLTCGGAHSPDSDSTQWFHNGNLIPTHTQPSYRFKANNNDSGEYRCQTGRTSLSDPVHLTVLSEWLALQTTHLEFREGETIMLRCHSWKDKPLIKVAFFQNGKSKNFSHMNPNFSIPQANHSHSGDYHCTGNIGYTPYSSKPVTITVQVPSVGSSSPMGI
Procedure: as §1, §2

[5] = target: T6, cynomolgus monkey FcγRIIIaS extracellular domain, His-tagged (cynomolgus monkey, UniProt Q8SPW2 21-206 at identity 1.00)); assay: as above
T6 construct: also called cyno FcγRIIIaS; cynoFcγRIIIaS; not shown: C-terminal His-tag
T6 chain: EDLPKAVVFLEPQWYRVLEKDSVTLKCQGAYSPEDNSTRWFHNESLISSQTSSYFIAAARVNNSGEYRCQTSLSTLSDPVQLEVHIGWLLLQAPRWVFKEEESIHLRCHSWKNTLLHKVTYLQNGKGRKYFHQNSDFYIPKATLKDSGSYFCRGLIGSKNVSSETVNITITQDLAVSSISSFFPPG
Procedure: as §1, §2

[6] = target: T7, human FcγRIIIaV extracellular domain, His-tagged (human, UniProt P08637 17-208); assay: as above
T7 construct: also called human FcγRIIIa (V158 allotype); FcgRIIIaV; not shown: C-terminal His-tag
Procedure: as §1, §2

[7] = target: T8, cynomolgus monkey FcγRIIb extracellular domain, His-tagged (cynomolgus monkey); assay: as above
T8 construct: also called cyno FcγRIIb; cynoFcγRIIb; not shown: C-terminal His-tag
T8 chain: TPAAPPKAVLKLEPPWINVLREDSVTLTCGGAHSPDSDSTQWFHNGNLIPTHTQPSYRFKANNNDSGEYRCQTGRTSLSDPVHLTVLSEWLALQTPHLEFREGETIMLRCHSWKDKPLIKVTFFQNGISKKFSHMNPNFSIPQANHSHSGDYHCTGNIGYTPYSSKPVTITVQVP
Procedure: as §1, §2

[8] = target: T9, cynomolgus monkey FcγRIIa3 extracellular domain, His-tagged (cynomolgus monkey); assay: as above
T9 construct: also called cyno FcγRIIa3; cynoFcgRIIa3; not shown: C-terminal His-tag
T9 chain: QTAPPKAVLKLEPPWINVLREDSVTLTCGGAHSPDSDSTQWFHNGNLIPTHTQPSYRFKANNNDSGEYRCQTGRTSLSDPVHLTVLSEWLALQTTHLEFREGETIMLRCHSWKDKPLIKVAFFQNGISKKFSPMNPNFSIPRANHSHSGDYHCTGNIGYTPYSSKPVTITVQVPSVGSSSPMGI
Procedure: as §1, §2

[9] = target: T10, human FcγRIIb extracellular domain, His-tagged (human, UniProt P31994 43-217); assay: as above
T10 construct: also called FcgRIIb; not shown: C-terminal His-tag
T10 sequence: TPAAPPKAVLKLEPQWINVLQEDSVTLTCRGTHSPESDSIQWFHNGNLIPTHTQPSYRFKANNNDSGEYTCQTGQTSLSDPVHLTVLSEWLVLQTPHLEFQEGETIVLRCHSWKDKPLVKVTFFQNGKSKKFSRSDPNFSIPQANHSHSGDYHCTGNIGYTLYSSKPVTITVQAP
Procedure: as §1, §2

T7 sequence (P08637 17-208 F176V): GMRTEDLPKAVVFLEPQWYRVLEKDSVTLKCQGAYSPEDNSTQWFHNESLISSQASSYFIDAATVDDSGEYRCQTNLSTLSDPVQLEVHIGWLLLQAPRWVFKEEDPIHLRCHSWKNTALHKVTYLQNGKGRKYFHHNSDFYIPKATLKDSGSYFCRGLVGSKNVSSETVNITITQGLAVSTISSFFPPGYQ

B1: Ab003 (M103205H009 / M103202L000) (antibody, human IgG1, kappa, V domains shown)
VH: QVTLKESGPVLVKPTETLTLTCTVSGIDLSSYDISWVRQAPGKGLEWVGIISHAGSTYYASWAKGRLTISKDTSKNQVVLTMTNMDPVDTATYYCARGVPAYSTGGDLWGQGTLVTVSS
VL: DIVMTQSPATLSLSPGERATLSCQSSQSVYDNNWLSWFQQKPGQPPKLLIYWASTLASGVPSRFSGSGSGTDFTLTISSLQPEDAATYYCAGGYGGGLYAFGQGTKVEIKR
notes: Histidine-substituted variant of MS1032LO00-SG1
- koff (Human latent myostatin): 0.00088 s⁻¹

B2: Ab004 (M103205H026 / M103202L000) (antibody, human IgG1, kappa, V domains shown)
VH: QVTLKESGPVLVKPTETLTLTCTVSGIDLSSYDISWVRQAPGKGLEWVGIISYAGSTYYASWAKGRLTISKDTSKNQVVLTMTNMDPVDTATYYCARGVPAHSTGGDLWGQGTLVTVSS
VL: DIVMTQSPATLSLSPGERATLSCQSSQSVYDNNWLSWFQQKPGQPPKLLIYWASTLASGVPSRFSGSGSGTDFTLTISSLQPEDAATYYCAGGYGGGLYAFGQGTKVEIKR
notes: as for B1
- koff (Human latent myostatin): 0.000186 s⁻¹

B3: Ab005 (M103205H028 / M103202L000) (antibody, human IgG1, kappa, V domains shown)
VH: QVTLKESGPVLVKPTETLTLTCTVSGIDLSSYDISWVRQAPGKGLEWVGIISYAGSTYYASWAKGRLTISKDTSKNQVVLTMTNMDPVDTATYYCARGVPAYSHGGDLWGQGTLVTVSS
VL: DIVMTQSPATLSLSPGERATLSCQSSQSVYDNNWLSWFQQKPGQPPKLLIYWASTLASGVPSRFSGSGSGTDFTLTISSLQPEDAATYYCAGGYGGGLYAFGQGTKVEIKR
notes: as for B1
- koff (Human latent myostatin): 7.63e-05 s⁻¹

B4: Ab006 (M103205H000 / M103202L008) (antibody, human IgG1, kappa, V domains shown)
VH: QVTLKESGPVLVKPTETLTLTCTVSGIDLSSYDISWVRQAPGKGLEWVGIISYAGSTYYASWAKGRLTISKDTSKNQVVLTMTNMDPVDTATYYCARGVPAYSTGGDLWGQGTLVTVSS
VL: DIVMTQSPATLSLSPGERATLSCQSSQSVYHNNWLSWFQQKPGQPPKLLIYWASTLASGVPSRFSGSGSGTDFTLTISSLQPEDAATYYCAGGYGGGLYAFGQGTKVEIKR
notes: as for B1
- koff (Human latent myostatin): 8.58e-05 s⁻¹

B5: Ab007 (M103205H028 / M103202L008) (antibody, human IgG1, kappa, V domains shown)
VH: QVTLKESGPVLVKPTETLTLTCTVSGIDLSSYDISWVRQAPGKGLEWVGIISYAGSTYYASWAKGRLTISKDTSKNQVVLTMTNMDPVDTATYYCARGVPAYSHGGDLWGQGTLVTVSS
VL: DIVMTQSPATLSLSPGERATLSCQSSQSVYHNNWLSWFQQKPGQPPKLLIYWASTLASGVPSRFSGSGSGTDFTLTISSLQPEDAATYYCAGGYGGGLYAFGQGTKVEIKR
notes: as for B1
- koff (Human latent myostatin): 0.000415 s⁻¹

B6: M103205H795-MY066/M103202L889-SK1 (antibody, human IgG1, kappa)
heavy: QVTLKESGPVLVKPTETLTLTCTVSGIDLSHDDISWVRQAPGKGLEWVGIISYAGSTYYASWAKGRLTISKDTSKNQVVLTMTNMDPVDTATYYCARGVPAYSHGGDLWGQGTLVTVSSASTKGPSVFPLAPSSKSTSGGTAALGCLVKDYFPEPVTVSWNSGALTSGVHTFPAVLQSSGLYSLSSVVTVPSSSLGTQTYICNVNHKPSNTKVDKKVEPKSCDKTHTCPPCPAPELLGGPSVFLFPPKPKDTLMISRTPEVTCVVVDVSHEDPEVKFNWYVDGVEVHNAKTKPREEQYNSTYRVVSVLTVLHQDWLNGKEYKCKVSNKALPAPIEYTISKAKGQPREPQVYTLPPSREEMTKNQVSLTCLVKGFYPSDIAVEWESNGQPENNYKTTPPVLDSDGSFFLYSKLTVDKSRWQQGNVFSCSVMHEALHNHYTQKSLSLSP
light: DIVMTQSPATLSLSPGERATLSCTSSQSVYHANWLSWFQQKPGQPPKLLIYWASTLAYGVPSRFSGSGSGTDFTLTISSLQPEDAATYYCAGGYGGGRYAFGQGTKVEIKRTVAAPSVFIFPPSDEQLKSGTASVVCLLNNFYPREAKVQWKVDNALQSGNSQESVTEQDSKDSTYSLSSTLTLSKADYEKHKVYACEVTHQGLSSPVTKSFNRGEC
notes: Substitution introduced into M103205H795-SG1 and expressed with M103202L889-SK1 as light chain; also called K334Y variant of MS1032LO06-SG1
- KD fold for humanFcgRs (SG1 = 1) [1]: 1.1 fold
- KD fold for cynoFcgRs (SG1 = 1) [2]: 1.5 fold
- KD fold for humanFcgRs (SG1 = 1) [3]: 1.1 fold
- KD fold for cynoFcgRs (SG1 = 1) [4]: 2 fold
- KD fold for cynoFcgRs (SG1 = 1) [5]: 2.25 fold
- KD fold for humanFcgRs (SG1 = 1) [6]: 2.79 fold
- KD fold for cynoFcgRs (SG1 = 1) [7]: 1.3 fold
- KD fold for cynoFcgRs (SG1 = 1) [8]: 2.5 fold
- KD fold for humanFcgRs (SG1 = 1) [9]: 1.6 fold

B7: M103205H795-MY015/M103202L889-SK1 (antibody, human IgG1, kappa)
heavy: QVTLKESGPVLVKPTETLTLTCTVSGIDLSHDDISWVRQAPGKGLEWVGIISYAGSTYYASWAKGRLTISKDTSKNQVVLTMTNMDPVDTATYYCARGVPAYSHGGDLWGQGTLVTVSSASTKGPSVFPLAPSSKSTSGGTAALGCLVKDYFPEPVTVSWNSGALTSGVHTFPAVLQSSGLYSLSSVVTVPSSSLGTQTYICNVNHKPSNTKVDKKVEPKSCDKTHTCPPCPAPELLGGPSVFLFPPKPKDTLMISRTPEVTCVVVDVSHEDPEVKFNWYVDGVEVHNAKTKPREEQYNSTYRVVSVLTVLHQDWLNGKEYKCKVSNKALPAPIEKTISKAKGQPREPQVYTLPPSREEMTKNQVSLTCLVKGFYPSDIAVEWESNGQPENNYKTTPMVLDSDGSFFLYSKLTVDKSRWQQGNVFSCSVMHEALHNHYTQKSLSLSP
light: DIVMTQSPATLSLSPGERATLSCTSSQSVYHANWLSWFQQKPGQPPKLLIYWASTLAYGVPSRFSGSGSGTDFTLTISSLQPEDAATYYCAGGYGGGRYAFGQGTKVEIKRTVAAPSVFIFPPSDEQLKSGTASVVCLLNNFYPREAKVQWKVDNALQSGNSQESVTEQDSKDSTYSLSSTLTLSKADYEKHKVYACEVTHQGLSSPVTKSFNRGEC
notes: Substitution introduced into M103205H795-SG1 and expressed with M103202L889-SK1 as light chain; also called P396M variant of MS1032LO06-SG1
- KD fold for humanFcgRs (SG1 = 1) [1]: 2.1 fold
- KD fold for cynoFcgRs (SG1 = 1) [2]: 2.5 fold
- KD fold for humanFcgRs (SG1 = 1) [3]: 3.4 fold
- KD fold for cynoFcgRs (SG1 = 1) [4]: 3.4 fold
- KD fold for cynoFcgRs (SG1 = 1) [5]: 3.8 fold
- KD fold for humanFcgRs (SG1 = 1) [6]: 3.38 fold
- KD fold for cynoFcgRs (SG1 = 1) [7]: 3 fold
- KD fold for cynoFcgRs (SG1 = 1) [8]: 3.6 fold
- KD fold for humanFcgRs (SG1 = 1) [9]: 2.9 fold
